The test system of data set [1] is HeLa Kyoto. The data set can be described thus: melting temperature (median over replicates), in situ; higher = more thermally stable.
Data set [2] concerns HeLa Kyoto. Nature of the data set: solubility in G1/S (NP-40 vs SDS abundance) (log2 ratio); higher = more soluble. As to conditions: cell cycle stage: G1/S.
Data set [3] relates to HeLa Kyoto. The data set can be described thus: solubility change mitosis vs G1/S (difference of NP-40 vs SDS log2 ratios) (log2 ratio difference); higher = more soluble in mitosis.
Data set [4] concerns HeLa Kyoto. Nature of the data set: thermal stability score vs G1/S (z-score of summed log2 fold changes over temperatures); higher = more thermally stable than in G1/S.
Setting [5] is: cell cycle stage: early G1 (4.5 h after nocodazole release).

This note sets out measurements from the supplement of paper PMC5998384.
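Throughout, for melting temperature (median over replicates), in situ: HeLa Kyoto cells synchronized by double thymidine or nocodazole block, proteins quantified by TMT10plex mass spectrometry, three independent biological replicates.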
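Throughout, for solubility change mitosis vs G1/S (difference of NP-40 vs SDS log2 ratios): synchronized HeLa Kyoto cells (double thymidine block for G1/S, nocodazole release for mitosis), protein amounts in NP-40 versus SDS lysates quantified by mass spectrometry, three biological replicates.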
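Throughout, for solubility in G1/S (NP-40 vs SDS abundance): HeLa Kyoto cells arrested at G1/S by double thymidine block, proteins quantified by TMT10plex mass spectrometry in mild NP-40 versus SDS extracts, three biological replicates.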
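Throughout, for thermal stability score vs G1/S (z-score of summed log2 fold changes over temperatures): synchronized HeLa Kyoto cells, proteins quantified by TMT10plex mass spectrometry, three biological replicates, mitosis taken 0.5 h after nocodazole release, G1/S directly after double thymidine block.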

Consider “MSVEAYGPSSQTLTFLDTEEAELLGADTQGSEFEFTDFTLPSQTQTPPGGPGGPGGGGAGGPGGAGAGAAAGQLDAQVGPEGILQNGAVDDSVAKTSQLLAELNFEEDEEDTYYTKDLPIHACSYCGIHDPACVVYCNTSKKWFCNGRGNTSGSHIVNHLVRAKCKEVTLHKDGPLGETVLECYNCGCRNVFLLGFIPAKADSVVVLLCRQPCASQSSLKDINWDSSQWQPLIQDRCFLSWLVKIPSEQEQLRARQITAQQINKLEELWKENPSATLEDLEKPGVDEEPQHVLLRYEDAYQYQNIFGPLVKLEADYDKKLKESQTQDNITVRWDLGLNKKRIAYFTLPKTDSGNEDLVIIWLRDMRLMQGDEICLRYKGDLAPLWKGIGHVIKVPDNYGDEIAIELRSSVGAPVEVTHNFQVDFVWKSTSFDRMQSALKTFAVDETSVSGYIYHKLLGHEVEDVIIKCQLPKRFTAQGLPDLNHSQVYAVKTVLQRPLSLIQGPPGTGKTVTSATIVYHLARQGNGPVLVCAPSNIAVDQLTEKIHQTGLKVVRLCAKSREAIDSPVSFLALHNQIRNMDSMPELQKLQQLKDETGELSSADEKRYRALKRTAERELLMNADVICCTCVGAGDPRLAKMQFRSILIDESTQATEPECMVPVVLGAKQLILVGDHCQLGPVVMCKKAAKAGLSQSLFERLVVLGIRPIRLQVQYRMHPALSAFPSNIFYEGSLQNGVTAADRVKKGFDFQWPQPDKPMFFYVTQGQEEIASSGTSYLNRTEAANVEKITTKLLKAGAKPDQIGIITPYEGQRSYLVQYMQFSGSLHTKLYQEVEIASVDAFQGREKDFIILSCVRANEHQGIGFLNDPRRLNVALTRARYGVIIVGNPKALSKQPLWNHLLNYYKEQKVLVEGPLNNLRESLMQFSKPRKLVNTINPGARFMTTAMYDAREAIIPGSVYDRSSQGRPSSMYFQTHDQIGMISAGPSHVAAMNIPIPFNLVMPPMPPPGYFGQANGPAAGRGTPKGKTGRGGRQKNRFGLPGPSQTNLPNSQASQDVASQPFSQGALTQGYISMSQPSQMSQPGLSQPELSQDSYLGDEFKSQIDVALSQDSTYQGERAYQHGGVTGLSQY [UPF1]”, for which the melting temperature in data set [1] (cell cycle stage: G1/S) was determined as 54.3 °C; in data set [1] (cell cycle stage: mitosis), 52.3 °C. The “solubility in G1/S (log2)” value in data set [2] stood at 0.0497. Besides, the “solubility change mitosis (log2)” value in data set [3] was -0.0177. Moreover, the thermal stability score was -3.14 in data set [4] (setting [5]) and -8.04 in data set [4] (cell cycle stage: mitosis).

Consider “MSVRVARVAWVRGLGASYRRGASSFPVPPPGAQGVAELLRDATGAEEEAPWAATERRMPGQCSVLLFPGQGSQVVGMGRGLLNYPRVRELYAAARRVLGYDLLELSLHGPQETLDRTVHCQPAIFVASLAAVEKLHHLQPSVIENCVAAAGFSVGEFAALVFAGAMEFAEGLYAVKIRAEAMQEASEAVPSGMLSVLGQPQSKFNFACLEAREHCKSLGIENPVCEVSNYLFPDCRVISGHQEALRFLQKNSSKFHFRRTRMLPVSGAFHTRLMEPAVEPLTQALKAVDIKKPLVSVYSNVHAHRYRHPGHIHKLLAQQLVSPVKWEQTMHAIYERKKGRGFPQTFEVGPGRQLGAILKSCNMQAWKSYSAVDVLQTLEHVDLDPQEPPR [MCAT]”, for which the results for the melting temperature in data set [1] (cell cycle stage: G1/S) and in data set [1] (cell cycle stage: mitosis) were 53.7 °C and 54.9 °C, respectively. Besides, the “solubility in G1/S (log2)” value in data set [2] stood at 0.3. For the same sequence, in data set [3], the “solubility change mitosis (log2)” value is -0.00154. The results for the thermal stability score in data set [4] (setting [5]) and in data set [4] (cell cycle stage: mitosis) were -1.29 and -2.74, respectively.

“MSVRVARVAWVRGLGASYRRGASSFPVPPPGAQGVAELLRDATGAEEEAPWAATERRMPGQCSVLLFPGQGSQVVGMGRGLLNYPRVRELYAAARRVLGYDLLELSLHGPQETLDRTVHCQPAIFVASLAAVEKLHHLQPSVIENCVAAAGFSVGEFAALVFAGAMEFAEGLYAVKIRAEAMQEASEAVPSGMLSVLGQPQSKFNFACLEAREHCKSLGIENPVCEVSNYLFPDCRVISGHQEALRFLQKNSSKFHFRRTRMLPVSGAFHTRLMEPAVEPLTQALKAVDIKKPLVSVYSNVHAHRYRHPGHIHKLLAQQLVSPVKWEQTMHAIYERKKGRGFPQTFEVGPGRQLGAILKSCNMQAWKSYSAVDVLQTLEHVDLDPQEPPR [MT]”: the melting temperature in data set [1] (cell cycle stage: G1/S) amounted to 59 °C; in data set [1] (cell cycle stage: mitosis), 56.6 °C. The “solubility in G1/S (log2)” value in data set [2] was -0.124. Also, in data set [3], the “solubility change mitosis (log2)” value is -0.162. In addition, the thermal stability score in data set [4] (setting [5]) is -1.31; in data set [4] (cell cycle stage: mitosis), -2.45.

“MSVTYDDSVGVEVSSDSFWEVGNYKRTVKRIDDGHRLCSDLMNCLHERARIEKAYAQQLTEWARRWRQLVEKGPQYGTVEKAWMAFMSEAERVSELHLEVKASLMNDDFEKIKNWQKEAFHKQMMGGFKETKEAEDGFRKAQKPWAKKLKEVEAAKKAHHAACKEEKLAISREANSKADPSLNPEQLKKLQDKIEKCKQDVLKTKEKYEKSLKELDQGTPQYMENMEQVFEQCQQFEEKRLRFFREVLLEVQKHLDLSNVAGYKAIYHDLEQSIRAADAVEDLRWFRANHGPGMAMNWPQFEEWSADLNRTLSRREKKKATDGVTLTGINQTGDQSLPSKPSSTLNVPSNPAQSAQSQSSYNPFEDEDDTGSTVSEKDDTKAKNVSSYEKTQSYPTDWSDDESNNPFSSTDANGDSNPFDDDATSGTEVRVRALYDYEGQEHDELSFKAGDELTKMEDEDEQGWCKGRLDNGQVGLYPANYVEAIQ [PACSIN2]”: the melting temperature is 49.6 °C in data set [1] (cell cycle stage: G1/S) and 49.7 °C in data set [1] (cell cycle stage: mitosis). The “solubility in G1/S (log2)” value in data set [2] stood at 0.218. For the same sequence, the “solubility change mitosis (log2)” value in data set [3] is -0.0385. The thermal stability score in data set [4] (setting [5]) was found to be 1.11; in data set [4] (cell cycle stage: mitosis), 1.7.
